The assay addresses S:D614G protein (SARS-CoV-2 spike with the D614G mutation, form used for cryoEM) (SARS-CoV-2 | not stated). Put plainly: cryo-EM structure.

One may read the stoichiometry N as a count of units in the complex or per binding partner.

As to “S:D614G protein (SARS-CoV-2 spike with the D614G mutation, form used for cryoEM)”, the stoichiometry N worked out at 3.

These data come from publication PMC10424185, “C-2 Thiophenyl Tryptophan Trimers Inhibit Cellular Entry of SARS-CoV-2 through Interaction with the Viral Spike (S) Protein” (Journal of Medicinal Chemistry, 2023).
